Here are results for one molecule from article PMC4961847 (2016).

This experiment has as its target PD-L1 ECD (Homo sapiens, UniProt Q9NZQ7). The experiment can be described thus: magneto-nanosensor.

PD-L1 ECD, sequence (Q9NZQ7 19-238): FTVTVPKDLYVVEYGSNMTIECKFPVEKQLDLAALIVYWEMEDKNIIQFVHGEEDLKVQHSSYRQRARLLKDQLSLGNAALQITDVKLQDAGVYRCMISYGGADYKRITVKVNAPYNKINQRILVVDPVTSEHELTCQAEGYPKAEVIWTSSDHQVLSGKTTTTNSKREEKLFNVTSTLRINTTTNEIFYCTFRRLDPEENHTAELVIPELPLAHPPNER

B1: PD-L2 ECD (protein)
chain: LFTVTVPKELYIIEHGSNVTLECNFDTGSHVNLGAITASLQKVENDTSPHRERATLLEEQLPLGKASFHIPQVQVRDEGQYQCIIIYGVAWDYKYLTLKVKASYRKINTHILKVPETDEVELTCQATGYPLAEVSWPNVSVPANTSHSRTPEGLYQVTSVLRLKPPPGRNFSCVFWNTHVRELTLASIDLQSQMEPRTHPT
Usually Kd stands for a measure of binding affinity in units of concentration. B1 returned a Kd of 9.1 µM.
